Target: Cluster of differentiation 99 (CD99) (Homo sapiens (Human)., UniProt P14209)
Test: cell-based or functional assay

Sequence of Cluster of differentiation 99 (CD99) (P14209 23-185): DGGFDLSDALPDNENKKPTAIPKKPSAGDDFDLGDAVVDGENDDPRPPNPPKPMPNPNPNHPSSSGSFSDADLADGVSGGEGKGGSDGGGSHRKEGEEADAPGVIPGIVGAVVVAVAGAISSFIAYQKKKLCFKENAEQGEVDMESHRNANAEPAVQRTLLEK

phospho-SRC in MV4-11 cells at 24 hours (western blot), 25 μmol/L CD99-A192 vs. A192: 11 fold
B1: CD99-A192 (α-CD99 scFv fused to the amino-terminus of the elastin-like polypeptide A192) (scFv, V domains shown)
VH: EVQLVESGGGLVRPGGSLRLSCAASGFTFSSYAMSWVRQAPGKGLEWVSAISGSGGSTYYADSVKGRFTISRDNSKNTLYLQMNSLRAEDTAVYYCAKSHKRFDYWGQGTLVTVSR
VL: SSELTQDPAVSVALGQTVRITCQGDSLRSYYASWYQQKPGQAPVLVIYGKNNRPSGIPDRFSGSSSGNTASLTITGAQAEDEADYYCNSSFPRTSSVVFGGGTKLTVL
IC50 of cell viability (CCK-8) of MV4-11 cells, 72 hours: 400 nM
